In US20040018530:
Like-named read-outs stand apart in the source and are kept apart here.

Legend:
[1] = test system: IgE (immunoglobulin E, monoclonal, kappa light chain) (Homo sapiens); details: affinity capillary electrophoresis with LIF; PBS, 1 mM MgCl2, pH 8.0, 25 C; literature value 10 nM; cited from earlier work
[2] = test system: IgE (immunoglobulin E, monoclonal, kappa light chain) (Homo sapiens); details: affinity capillary electrophoresis with LIF; PBS, 1 mM MgCl2, 40 mM NaCl, pH 8.0, 25 C
[3] = test system: IgE (immunoglobulin E, monoclonal, kappa light chain) (Homo sapiens); details: CE-UV binding assay up to 1.1 uM IgE; round 1 pool 67% bound; PBS, 1 mM MgCl2, pH 8.0, 25 C
[4] = test system: IgE (immunoglobulin E, monoclonal, kappa light chain) (Homo sapiens); details: CE-UV binding assay; rounds 1, 2, 3 gave 62, 96, ~100% bound; PBS, 1 mM MgCl2, pH 8.0, 25 C
[5] = test system: IgE (immunoglobulin E, monoclonal, kappa light chain) (Homo sapiens); details: CE-UV binding assay up to 2.5 uM IgE; round 1 pool 33% bound; PBS, 1 mM MgCl2, pH 8.0, 25 C
[6] = test system: IgE (immunoglobulin E, monoclonal, kappa light chain) (Homo sapiens); details: affinity capillary electrophoresis with LIF; PBS, 1 mM MgCl2, 35 mM NaCl, pH 8.0, 25 C

CTACCTACGATCTGACTAGCGGGGCACGTTTATCCGTCCCTCCTAGTGGCGTGCCCCGCTTACTCTCATGTAGTTCC [conventional SELEX IgE aptamer]
Kd [1]: 4 nM

AGCAGCACAGAGGTCAGATGGATGGGGGGGTCTAACGTGCGATCTGCCGACTTTATCCTGCCTATGCGTGCTACCGTGAA [Clone 2.27]
Kd [2]: 52 nM

AGCAGCACAGAGGTCAGATGNNNNNNNNNNNNNNNNNNNNNNNNNNNNNNNNNNNNNNNNCCTATGCGTGCTACCGTGAA [CE-SELEX experiment 2 round 2 enriched pool]
binding [3]: 100 % bound

AGCAGCACAGAGGTCAGATGNNNNNNNNNNNNNNNNNNNNNNNNNNNNNNNNNNNNNNNNCCTATGCGTGCTACCGTGAA [CE-SELEX experiment 3 round 4 enriched pool]
binding [4]: 100 % bound

AGCAGCACAGAGGTCAGATGNNNNNNNNNNNNNNNNNNNNNNNNNNNNNNNNNNNNNNNNCCTATGCGTGCTACCGTGAA [CE-SELEX experiment 1 round 2 enriched pool]
binding [5]: 100 % bound

AGCAGCACAGAGGTCAGATGGTAATTTTCGCTGCGATTAGGCTTGTGACAAAATTACTATCCTATGCGTGCTACCGTGAA [Clone 1.8]
Kd [6]: 293 nM
